{"source": "patent US20220195383A1", "about": "“METHOD FOR PRODUCING PLURIPOTENT STEM CELLS” (KANEKA CORPORATION, priority 2019, published 2022)", "molecules": {"B1": {"name": "WNT3A protein: WNT3A protein (R&D Systems, Inc.) added to the adhesion culture medium at 10 pg/mL to 100 ng/mL (protein, UniProt P56704 19-352, looked up)", "Protein Wnt-3a": "SYPIWWSLAVGPQYSSLGSQPILCASIPGLVPKQLRFCRNYVEIMPSVAEGIKIGIQECQHQFRGRRWNCTTVHDSLAIFGPVLDKATRESAFVHAIASAGVAFAVTRSCAEGTAAICGCSSRHQGSPGKGWKWGGCSEDIEFGGMVSREFADARENRPDARSAMNRHNNEAGRQAIASHMHLKCKCHGLSGSCEVKTCWWSQPDFRAIGDFLKDKYDSASEMVVEKHRESRGWVETLRPRYTYFKVPTERDLVYYEASPNFCEPNPETGSFGTRDRTCNVSSHGIDGCDLLCCGRGHNARAERRREKCRCVFHWCCYVSCQECTRVYDVHTCK"}}, "key": {"[1]": {"tested_on": "human iPS cell line 201B7", "assay": "Adhesion culture with addition of WNT3A protein into medium, quantitative real-time PCR", "assay_type": "cell-based", "details": "Line 201B7, day 5", "experimental": "(§1) These cells were lysed using TRIzol™ Reagent (Thermo Fisher Scientific K.K.). Total RNA was isolated and purified from a cell solution obtained by lysing with TRIzol™ Reagent using a PureLink (registered trademark) RNA Mini kit (Thermo Fisher Scientific K.K.). A concentration of the purified RNA was measured using BioSpec-nano (Shimadzu Corporation), and 40 ng was separated. 2 μL of ReverTra Ace (registered trademark) qPCR RT Master Mix (TOYOBO CO., LTD.) and RNase Free dH2O were added to the separated RNA to prepare 10 μL. cDNA synthesis was performed using SimpliAmp Thermal Cycler (Thermo Fisher Scientific K.K.). […] A synthesized cDNA solution was diluted 100-fold with 10 mM Tris-HCl pH 8.0 (NACALAI TESQUE, INC.) and added to a 384-well PCR plate (Thermo Fisher Scientific K.K.) at 5 μL/well. KOD SYBR® qPCR Mix (TOYOBO CO., LTD.), a Forward primer prepared to 50 μM, a Reverse primer prepared to 50 μM, and DEPC-treated water (NACALAI TESQUE, INC.) were mixed at a ratio of 100:1:1:48. This mixed solution was added to the above-mentioned 384-well PCR plate at 15 μL/well and mixed. For the primers, bACT, OCT4, SOX2, Nanog, Brachyury, and SOX17 were used. The 384-well PCR plate was subjected to centrifugal separation to remove air bubbles in the wells, and quantitative real-time PCR analysis was performed using QuantStudio 7 Flex Real-Time PCR System (Thermo Fisher Scientific K.K.).\n(§2) The human iPS cell lines 201B7 and RPChiPS771-2 maintenance-cultured in the procedure of Step 1 of Reference Example 3 were treated with Accutase for 3 to 5 minutes to release the cells from the dish. The cells were dispersed into single cells by pipetting. These cells were suspended in a StemFit (registered trademark) AK02N medium containing Y-27632 at a final concentration of 10 μM. A part of the cells was stained with trypan blue to measure the number of living cells. A cell suspension was prepared so that it contained 4.6×10^4 cells per mL using the StemFit (registered trademark) AK02N medium containing Y-27632 a final concentration of 10 μM. 2 mL of the cell suspension per well was seeded in a 6-well plate for cell culture (Sumitomo Bakelite Co., Ltd.) coated with 0.5 μg of Vitronectin per 1 cm^2. WNT3A protein (R&D Systems, Inc.) was added to each of the wells so that final concentrations were 10 pg/mL, 100 pg/mL, 1 ng/mL, 10 ng/mL, and 100 ng/mL, and adhesion culture was performed at 37° C. in a 5% CO2 environment. The day when the cells were seeded was defined as day 0 of the culture. The adhesion culture was performed until day 5 of the culture. Medium exchange was performed every day. […] Phase-contrast images of the cells were acquired using a phase-contrast microscope on day 5 of the culture. FIG. 8 and FIG. 9 show the acquired phase-contrast images. Furthermore, on day 5 of the culture, the culture supernatant was recovered from the wells. 0.5 mL of Accutase was added per well to treat the cells for 3 to 5 minutes. The cells were released from the wells, and were dispersed into single cells by pipetting. These cells were suspended in a StemFit (registered trademark) AK02N medium containing Y-27632 at a final concentration of 10 μM. A part of the cells was stained with trypan blue to measure the number of living cells.\n(§3) The phase-contrast images on day 5 of the culture were analyzed with image analysis software (for example, ImageJ), and a proportion of a surface area of cells with respect to a culture area was calculated. From this value and the culture area (9.2 cm^2/well), an area in which the cell surface was in contact with the medium was calculated. Furthermore, a surface area (cm^2) in contact with the medium per cell was calculated from an area in which the cell surface was in contact with the medium and from the number of living cells on day 5 of the culture. […]"}, "[2]": {"tested_on": "human iPS cell line RPChiPS771-2", "assay": "Adhesion culture with addition of WNT3A protein into medium, quantitative real-time PCR", "assay_type": "cell-based", "experimental": "as §1, §2, §3"}, "[3]": {"details": "WNT3A protein in medium 10 pg/mL"}, "[4]": {"details": "WNT3A protein in medium 100 pg/mL"}, "[5]": {"details": "WNT3A protein in medium 1 ng/mL"}, "[6]": {"details": "WNT3A protein in medium 10 ng/mL"}, "[7]": {"details": "WNT3A protein in medium 100 ng/mL"}, "[8]": {"details": "WNT3A protein in medium 10 pg/mL, adhesion culture, Line RPChiPS771-2, day 5"}, "[9]": {"details": "WNT3A protein in medium 100 pg/mL, adhesion culture, Line RPChiPS771-2, day 5"}, "[10]": {"details": "WNT3A protein in medium 1 ng/mL, adhesion culture, Line RPChiPS771-2, day 5"}, "[11]": {"details": "WNT3A protein in medium 10 ng/mL, adhesion culture, Line RPChiPS771-2, day 5"}, "[12]": {"details": "WNT3A protein in medium 100 ng/mL, adhesion culture, Line RPChiPS771-2, day 5"}, "[13]": {"details": "adhesion culture with added WNT3A, lines 201B7 and RPChiPS771-2, day 5"}}, "data": [{"molecule": "B1", "values": [{"measurement": "Relative gene expression level with respect to ACTB in 2^−Λ Ct, Nanog", "setting": "[1]; [3]", "value": "2.59 × 10^−2"}, {"measurement": "Relative gene expression level with respect to ACTB in 2^−Λ Ct, OCT4", "setting": "[1]; [3]", "value": "2.27 × 10^−1"}, {"measurement": "Relative gene expression level with respect to ACTB in 2^−Λ Ct, SOX2", "setting": "[1]; [3]", "value": "2.44 × 10^−2"}, {"measurement": "Relative gene expression level with respect to ACTB in 2^−Λ Ct, Nanog", "setting": "[1]; [4]", "value": "2.91 × 10^−2"}, {"measurement": "Relative gene expression level with respect to ACTB in 2^−Λ Ct, OCT4", "setting": "[1]; [4]", "value": "2.63 × 10^−1"}, {"measurement": "Relative gene expression level with respect to ACTB in 2^−Λ Ct, SOX2", "setting": "[1]; [4]", "value": "2.75 × 10^−2"}, {"measurement": "Relative gene expression level with respect to ACTB in 2^−Λ Ct, Nanog", "setting": "[1]; [5]", "value": "2.82 × 10^−2"}, {"measurement": "Relative gene expression level with respect to ACTB in 2^−Λ Ct, OCT4", "setting": "[1]; [5]", "value": "2.50 × 10^−1"}, {"measurement": "Relative gene expression level with respect to ACTB in 2^−Λ Ct, SOX2", "setting": "[1]; [5]", "value": "2.57 × 10^−2"}, {"measurement": "Relative gene expression level with respect to ACTB in 2^−Λ Ct, Nanog", "setting": "[1]; [6]", "value": "2.96 × 10^−2"}, {"measurement": "Relative gene expression level with respect to ACTB in 2^−Λ Ct, OCT4", "setting": "[1]; [6]", "value": "2.56 × 10^−1"}, {"measurement": "Relative gene expression level with respect to ACTB in 2^−Λ Ct, SOX2", "setting": "[1]; [6]", "value": "2.55 × 10^−2"}, {"measurement": "Relative gene expression level with respect to ACTB in 2^−Λ Ct, Brachyury", "setting": "[1]; [7]", "value": "3.14 × 10^−4"}, {"measurement": "Relative gene expression level with respect to ACTB in 2^−Λ Ct, Nanog", "setting": "[1]; [7]", "value": "6.13 × 10^−2"}, {"measurement": "Relative gene expression level with respect to ACTB in 2^−Λ Ct, OCT4", "setting": "[1]; [7]", "value": "3.60 × 10^−1"}, {"measurement": "Relative gene expression level with respect to ACTB in 2^−Λ Ct, SOX2", "setting": "[1]; [7]", "value": "2.08 × 10^−2"}, {"measurement": "Relative gene expression level with respect to ACTB in 2^−Λ Ct, SOX17", "setting": "[1]; [7]", "value": "4.03 × 10^−5"}, {"measurement": "Relative gene expression level with respect to ACTB in 2^−Λ Ct, Nanog", "setting": "[2]; [8]", "value": "5.06 × 10^−2"}, {"measurement": "Relative gene expression level with respect to ACTB in 2^−Λ Ct, OCT4", "setting": "[2]; [8]", "value": "4.06 × 10^−1"}, {"measurement": "Relative gene expression level with respect to ACTB in 2^−Λ Ct, SOX2", "setting": "[2]; [8]", "value": "2.64 × 10^−2"}, {"measurement": "Relative gene expression level with respect to ACTB in 2^−Λ Ct, Nanog", "setting": "[2]; [9]", "value": "5.30 × 10^−2"}, {"measurement": "Relative gene expression level with respect to ACTB in 2^−Λ Ct, OCT4", "setting": "[2]; [9]", "value": "4.44 × 10^−1"}, {"measurement": "Relative gene expression level with respect to ACTB in 2^−Λ Ct, SOX2", "setting": "[2]; [9]", "value": "2.77 × 10^−2"}, {"measurement": "Relative gene expression level with respect to ACTB in 2^−Λ Ct, Nanog", "setting": "[2]; [10]", "value": "4.88 × 10^−2"}, {"measurement": "Relative gene expression level with respect to ACTB in 2^−Λ Ct, OCT4", "setting": "[2]; [10]", "value": "3.87 × 10^−1"}, {"measurement": "Relative gene expression level with respect to ACTB in 2^−Λ Ct, SOX2", "setting": "[2]; [10]", "value": "2.89 × 10^−2"}, {"measurement": "Relative gene expression level with respect to ACTB in 2^−Λ Ct, Nanog", "setting": "[2]; [11]", "value": "5.53 × 10^−2"}, {"measurement": "Relative gene expression level with respect to ACTB in 2^−Λ Ct, OCT4", "setting": "[2]; [11]", "value": "4.42 × 10^−1"}, {"measurement": "Relative gene expression level with respect to ACTB in 2^−Λ Ct, SOX2", "setting": "[2]; [11]", "value": "2.77 × 10^−2"}, {"measurement": "Relative gene expression level with respect to ACTB in 2^−Λ Ct, Brachyury", "setting": "[2]; [12]", "value": "3.07 × 10^−4"}, {"measurement": "Relative gene expression level with respect to ACTB in 2^−Λ Ct, Nanog", "setting": "[2]; [12]", "value": "6.65 × 10^−2"}, {"measurement": "Relative gene expression level with respect to ACTB in 2^−Λ Ct, OCT4", "setting": "[2]; [12]", "value": "4.56 × 10^−1"}, {"measurement": "Relative gene expression level with respect to ACTB in 2^−Λ Ct, SOX2", "setting": "[2]; [12]", "value": "1.66 × 10^−2"}, {"measurement": "Relative gene expression level with respect to ACTB in 2^−Λ Ct, SOX17", "setting": "[2]; [12]", "value": "1.11 × 10^−3"}, {"measurement": "Amount of WNT3A protein contained in unit of medium in contact with unit area of cell surface at which expression of the differentiation marker gene was detected", "setting": "[2]; [13]", "value": "≥ 5.2×10^4 μg/mL·cm^2"}, {"measurement": "Amount of WNT3A protein contained in unit of medium in contact with unit area of cell surface at which expression of the differentiation marker gene was not detected", "setting": "[2]; [13]", "value": "≤ 6.7×10^3 μg/mL·cm^2"}]}]}
